Target: 1wa3-wt, the wild-type trimeric aldolase from which I3-01 was derived
Assay: SEC

## 1wa3-wt, the wild-type trimeric aldolase from which I3-01 was derived (enzyme)
  stoichiometry N: 3

— PMC5729044
